Results published in paper PMC4113718.

Biological target: CXC chemokine receptor (CXCR) 4 on THP-1 cells (human (endogenous in THP-1)) (UniProt P61073)
Sequence (P61073 whole entry): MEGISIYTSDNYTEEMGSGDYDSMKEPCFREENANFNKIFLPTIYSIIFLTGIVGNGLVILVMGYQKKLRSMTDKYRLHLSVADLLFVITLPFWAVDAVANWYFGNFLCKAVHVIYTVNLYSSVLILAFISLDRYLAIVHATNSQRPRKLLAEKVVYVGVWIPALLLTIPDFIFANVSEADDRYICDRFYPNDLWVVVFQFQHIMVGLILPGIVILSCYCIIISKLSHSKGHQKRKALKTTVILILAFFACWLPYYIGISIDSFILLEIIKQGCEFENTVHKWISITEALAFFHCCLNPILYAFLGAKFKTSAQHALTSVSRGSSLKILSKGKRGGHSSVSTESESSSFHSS

Substance | LogIC50 (pM), reduction of cAMP levels in forskolin-stimulated THP-1 cells | bottom plateau (%), reduction of cAMP levels in forskolin-stimulated THP-1 cells [%]
Ub(1–74)NN (from UniProt P0CG47 1-76) (ligand) | 2.3 log(pM) | 54.1
Ub(1–74)RR (from UniProt P0CG47 1-76) (ligand) | – | 42.8
Ub(1–74)VV (from UniProt P0CG47 1-76) (ligand) | – | 46.7
